Measured values published in patent US8623997B2, “Variant Hhip1 protein and methods and uses thereof” (Curis, Inc., priority 2008, dated 2014).
Substitutions are numbered along the chain they refer to. Names and notes keep the numbering of the source. Values belong to the molecule of their own block, whether it stands above or below them.

Legend:
[1] = biological target: T1, biotinylated-ShhN-Cys (Homo sapiens, UniProt Q15465); experiment: Bio-layer interferometry (Octet) binding kinetics of Hhip1β12 variants to Shh; settings: for Shh binding of Hhip1β12 mutants (in words): bio-layer interferometry, compared with WT Hhip1β12; for Kd / koff × 10^−4 / kon × 10^3: 1:1 binding model, n.d stands for no binding detected
T1 construct: ShhN-Cys (residues 24-197); His6 (N); made in house; host or cells: E. coli Rosetta 2
Experimental: The binding kinetics of the Hhip1β12 fragments as well as Hhip1β12 mutants were measured by bio-layer interferometry in the presence or absence of 10 mM EDTA on an Octet (Fortébio). Streptavidin high binding FA biosensors were loaded with biotinylated-ShhN-Cys in kinetic buffer (Fortébio). The loaded biosensors were washed and transferred to wells containing Hhip1β12 protein at concentrations of 1.2, 1.0, 0.8 and 0.6 μM in kinetic buffer. Hhip1β12 association and dissociation was measured for 30 and 20 min, respectively. Kinetic parameters (kon and koff) and affinities (KD) were calculated from a non-linear fit of the data based on a 1:1 binding model between Hhip1β12 and Shh using the Octet software. Multiple independent measurements were performed.
In order to assess the contribution of residues in the Hhip1 L1, L2 and L3 loops for binding to Shh, a series of single alanine Hipβ12 mutants were made using the QuickChange DNA mutagenesis kit (Stratagene) using the manufacturer's protocol, and their affinity for Shh was measured by bio-layer interferometry (as described in Example 2B). These mutations included Hhip1β12 mutants 1312A, E381A, M382A, D383A, D378A, T418A, Q420A, E380A, D387A and ΔL2.

[2] = system: Shh signaling; experiment: Gli-luciferase co-culture signaling assay (S12 fibroblasts overlaid with Shh-producing HT29 cells); format: cell-based, murine S12 fibroblasts / human HT29 cells; settings: for IC50: 24 hrs, read-out: IC50 inhibition of Shh signaling
Description: Due to the lack of both N- and C-terminal lipid modifications of Shh and the absence of other cellular components, the in vitro assays may not fully recapitulate Hip-Shh interactions occurring in a cellular environment. Therefore, a co-culture assay consisting of murine S12 fibroblasts stably transfected with a Gli luciferase reporter gene and (Frank-Kamenetsky et al. (2002) J. Biol. 1:10) and human colorectal adenocarcinoma HT29 cells that secrete fully lipid-modified Shh (Yauch et al. (2008) Nature 455:406) was used to determine which extracellular domains of Hhip1β12 mediate inhibition of Shh signaling in mammalian cells.
Briefly, S12 cells, which are 10T1/2 fibroblasts stably transfected with 8× Gli-binding sites fused to a luciferase reporter (Frank-Kamenetsky et al. (2002) J. Biol. 1:10), were plated at 10,000 cells/well of a white-walled clear bottomed 96-well plate (Costar 3610) for […] in regular growth medium (HG-DMEM, 10% FBS, 1% glutamine). After 24 h, the media was removed and Shh-producing HT29 cells at 20,000 cells/well were plated and the co-culture was grown in regular media. After 24 h, the media was changed to 0.5% serum HG-DMEM±Hhip1β12 fragments and further incubated for 24 hrs to stimulate signaling. Gli-luciferase activity was measured using a HTS-Steady Lite luciferase detection kit (Perkin Elmer); multiple assays were carried out, each in triplicate. Data were fit to a 4-parameter sigmoidal equation, from which the IC50 was derived using Kaleidagraph (Synergy Software).

[3] = system: Ptch1; experiment: FACS assay of Shh649 binding to Ptch1 expressing 293 cells and its competition; parameters: species or system human
Experimental: Shh649 (1 nM) preincubated with indicated proteins was bound to Ptch1 expressing cells, washed and analyzed by FACS. The average mean Shh649 fluorescence intensity (MFI) of two independent dilution series was plotted versus inhibitor concentration, with error bars denoting standard deviations. […] Assays were carried out using octylated Ihh wildtype and T154I proteins. Concentration dependent relative luciferase units (RLU) are plotted as the average of four independent dilution series±standard deviation and normalized to the maximal Ihh WT stimulation on each plate as 100%. […] The data is representative of three independent experiments.
Shh is in the same orientation as in the Hhip-Shh complex in Panel A. Zn^2+ and Ca^2+ cations are shown. […] Surface representation of Shh with residues within 4.5 Å of Hhip (shaded gray) and Cdon (hatched areas). Area within dotted boarder indicates the boundaries of the Cdon footprint, which overlaps the Hhip binding surface. […] Shh histidine residues are shown as sticks with nitrogen atoms shaded dark. The Hhip L2 loop is shown in transparent surface and Zn^2+ cation is shown. Histidine 35 is not shown since the ordered portion of the Shh structure begins at L40. […] The spectral region of the histidine side chains is shown. […] The average mean Shh649 fluorescence intensity (MFI) of two independent dilution series was plotted versus protein concentration, with error bars denoting standard deviations. Ctrl refers to the His-6 (SEQ ID NO: 87) tagged HGF β protein. […] Shh649 (0.33 nM) was preincubated with 56 nM (170-fold excess) of Hhipβ12 wildtype or L2 mutant proteins, 5E1 or controls then bound to Ptch1 cells (black) or 293 cells (gray), washed and analyzed by FACS. Shh649 binding to Ptch1 cells in the absence of inhibitors was normalized to 100% and the data expressed as a percentage of this signal (average of two independent duplicates with standard deviations). Ctrl and CtrlFc refer to HGF β and the IgG1 isotype control Trastuzumab, respectively. The data is representative of at least three independent experiments.
Shh649, conjugated to Dylight 649 (Pierce) at its C-terminus (vide supra), was incubated at 0.33 or 1 nM for 1 h on ice with various Hhip or control proteins prior to incubation with HEK-293 cells (293) or 293 cells expressing full length human Patched-1 (Ptch1-293 clone 10) (Carpenter D. et al. (1998) Proc. Natl. Acad. Sci. USA 95:13630-13634) in FACS buffer (3% FBS in PBS) for 1 h on ice. After washing 3 times in FACS buffer, live cells (sorted by propidium iodide exclusion) were analyzed by flow cytometry in the APC channel using a FACSCalibur (BD Biosciences). Control proteins included His6-Shh, His6-Ihh, HGF β-His639, Trastuzumab (Genentech, Inc.) as a human IgG1 isotype control for Hhip1β12-Fc, and mIgG1 (Molecular Probes Z25105) as a murine Mab control for anti-Shh 5E1 Mab34.

B2: I312A: L1 loop single alanine variant made in the Hhip1β12 construct (protein)
chain: SNYLDQMEEYDKVEEISRKHKHNCFCIQEVVSGLRQPVGALHSGDGSQRLFILEKEGYVKILTPEGEIFKEPYLDIHKLVQSGIKGGDERGLLSLAFHPNYKKNGKLYVSYTTNQERWAAGPHDHILRVVEYTVSRKNPHQVDLRTARVFLEVAELHRKHLGGQLLFGPDGFLYIILGDGMITLDDMEEMDGLSDFTGSVLRLDVDTDMCNVPYSIPRSNPHFNSTNQPPEVFAHGLHDPGRCAVDRHPTDININLTILCSDSNGKNRSSARILQIIKGKDYESEPSLLEFKPFSNGPLVGGFVYRGCQSERLYGSYVFGDRNGNFLTLQQSPVTKQWQEKPLCLGTSGSCRGYFSGHILGFGEDELGEVYILSSSKSMTQTHNGKLYKIVDPKRPLMPEECRATVQPAQTLTSECSRLCRNGYCTPTGKCCCSPGWEGDFCRTAKCEPACRHGGVCVRPNKCLCKKGYLGPQCEHHHHHH
Kd [1]: 320 nM
koff × 10^−4 [1]: 4.8 × 10^−4 [s^−1]
kon × 10^3 [1]: 1.5 × 10^3 [M^−1 × s^−1]
Shh binding of Hhip1β12 mutants (in words) ([1]; listed as 1312A): little effect on Shh
inhibitory activity (in words) ([2]; Gli-luciferase co-culture): essentially identical to wildtype Hhip1β12

B3: Hhip1β1: β-propeller-EGF1 construct (SEQ ID NO:13), residues 193-637 of SEQ ID NO:2 (protein, listed as Homo sapiens)
chain: SNYLDQMEEYDKVEEISRKHKHNCFCIQEVVSGLRQPVGALHSGDGSQRLFILEKEGYVKILTPEGEIFKEPYLDIHKLVQSGIKGGDERGLLSLAFHPNYKKNGKLYVSYTTNQERWAIGPHDHILRVVEYTVSRKNPHQVDLRTARVFLEVAELHRKHLGGQLLFGPDGFLYIILGDGMITLDDMEEMDGLSDFTGSVLRLDVDTDMCNVPYSIPRSNPHFNSTNQPPEVFAHGLHDPGRCAVDRHPTDININLTILCSDSNGKNRSSARILQIIKGKDYESEPSLLEFKPFSNGPLVGGFVYRGCQSERLYGSYVFGDRNGNFLTLQQSPVTKQWQEKPLCLGTSGSCRGYFSGHILGFGEDELGEVYILSSSKSMTQTHNGKLYKIVDPKRPLMPEECRATVQPAQTLTSECSRLCRNGYCTPTGKCCCSPGWEGDFCRTA
binding to Shh in the presence of EDTA ([1]; 10 mM EDTA): completely abolished
Kd [1]: 150 nM
koff × 10^−4 [1]: 2.3 × 10^−4 [s^−1]
kon × 10^3 [1]: 1.5 × 10^3 [M^−1 × s^−1]
IC50 fold higher than Hhip1ECD ([2]; Gli-luciferase co-culture): about 4 fold
IC50 ([2]; Gli-luciferase co-culture): 20.3 nM

B4: Hhip1ECD: Hhip1 extracellular domain construct (SEQ ID NO:11), residues 20-667 of SEQ ID NO:2 (protein, listed as Homo sapiens)
chain: SNYLDQMEEYDKVEEISRKHKHNCFCIQEVVSGLRQPVGALHSGDGSQRLFILEKEGYVKILTPEGEIFKEPYLDIHKLVQSGIKGGDERGLLSLAFHPNYKKNGKLYVSYTTNQERWAIGPHDHILRVVEYTVSRKNPHQVDLRTARVFLEVAELHRKHLGGQLLFGPDGFLYIILGDGMITLDDMEEMDGLSDFTGSVLRLDVDTDMCNVPYSIPRSNPHFNSTNQPPEVFAHGLHDPGRCAVDRHPTDININLTILCSDSNGKNRSSARILQIIKGKDYESEPSLLEFKPFSNGPLVGGFVYRGCQSERLYGSYVFGDRNGNFLTLQQSPVTKQWQEKPLCLGTSGSCRGYFSGHILGFGEDELGEVYILSSSKSMTQTHNGKLYKIVDPKRPLMPEECRATVQPAQTLTSECSRLCRNGYCTPTGKCCCSPGWEGDFCRTAKCEPACRHGGVCVRPNKCLCKKGYLGPQCE
Kd [1]: 67 nM
koff × 10^−4 [1]: 7.9 × 10^−4 [s^−1]
kon × 10^3 [1]: 1.2 × 10^3 [M^−1 × s^−1]
IC50 ([2]; Gli-luciferase co-culture): 5.3 nM

Second part, led by results:

Shh binding of Hhip1β12 mutants (in words) [1]: inability
B1: D383A: L2 loop single alanine variant made in the Hhip1β12 construct (protein)
chain: B2 chain with A120I, D191A
inhibitory activity (in words) ([2]; Gli-luciferase co-culture): retained activity
maximal inhibition ([2]; at saturating conditions): ~85%

Shh binding of Hhip1β12 mutants (in words) [1]: abrogated binding to Shh
B5: Hhip1ΔL2: Hhip1β12 mutant with deletion of the entire L2 loop (protein)
chain: SNYLDQMEEYDKVEEISRKHKHNCFCIQEVVSGLRQPVGALHSGDGSQRLFILEKEGYVKILTPEGEIFKEPYLDIHKLVQSGIKGGDERGLLSLAFHPNYKKNGKLYVSYTTNQERWAIGPHDHILRVVEYTVSRKNPHQVDLRTARVFLEVAELHRKHLGGQLLFGPDGFLYIILGDGMITTGSVLRLDVDTDMCNVPYSIPRSNPHFNSTNQPPEVFAHGLHDPGRCAVDRHPTDININLTILCSDSNGKNRSSARILQIIKGKDYESEPSLLEFKPFSNGPLVGGFVYRGCQSERLYGSYVFGDRNGNFLTLQQSPVTKQWQEKPLCLGTSGSCRGYFSGHILGFGEDELGEVYILSSSKSMTQTHNGKLYKIVDPKRPLMPEECRATVQPAQTLTSECSRLCRNGYCTPTGKCCCSPGWEGDFCRTAKCEPACRHGGVCVRPNKCLCKKGYLGPQCEHHHHHH
inhibitory activity (in words) ([2]; Gli-luciferase co-culture): no inhibitory activity
competition of Shh649 binding to Ptch1 cells (in words) [3]: no inhibition
